± gives the standard deviation of the averaged measurements.
Test system: Saccharomyces cerevisiae
Test: protein stability index of tFT-peptide fusion (C-terminal peptide) (PSI (0-1 scale)); higher = more stable (slower turnover)
Settings: temperature: 30 C
Procedure: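 MPS profiling in S. cerevisiae of the yeast C-terminome library: the last 12 aa of each annotated ORF are fused to the C-terminus of a sfGFP-mCherry timer, after a GGGS linker. Cells are FACS-sorted into 8 mCherry/sfGFP bins and deep-sequenced. PSI runs from 0 (unstable) to 1 (stable); wild type and das1Δ backgrounds, two technical replicates each.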

[1] = genetic background: das1 deletion

Sequence	protein stability index [1]	protein stability index (genetic background: wild type)
GKKLVQEAFRIV [YPL039W C-terminal 12 aa]	0.715 ± 0.019	0.675 ± 0.035
DKSCIDIRSIIH [YAP5 C-terminal 12 aa]	0.706 ± 0.011	0.726 ± 0.041
FSSSVMIIMKAS [NFT1 C-terminal 12 aa]	0.5186 ± 0.0012	0.115 ± 0.0065
FVNNKGNFKDLK [ARG3 C-terminal 12 aa]	0.722 ± 0.025	0.686 ± 0.025
MFNQGKVEEMDF [SML1 C-terminal 12 aa]	0.7189 ± 0.0047	0.692 ± 0.017
FQSEYNISDILS [CEP3 C-terminal 12 aa]	0.703 ± 0.0092	0.745 ± 0.023
TEPLYILRWLRS [YDR290W C-terminal 12 aa]	0.678 ± 0.008	0.313 ± 0.0053
AKDFLEKRGISK [PAM18 C-terminal 12 aa]	0.711 ± 0.0047	0.705 ± 0.023
ASVRIFLYPSNI [RPL33A C-terminal 12 aa]	0.7 ± 0.013	0.697 ± 0.017
ALGRKTSNGGRI [MKS1 C-terminal 12 aa]	0.7161 ± 0.004	0.724 ± 0.049
KHQFLTKAKRFF [FET3 C-terminal 12 aa]	0.693 ± 0.0079	0.7186 ± 0.0014
YVFVFIIDFIIR [FUN26 C-terminal 12 aa]	0.213 ± 0.006	0.245 ± 0.0059
CLSDIAKVLRNQ [PBP4 C-terminal 12 aa]	0.661 ± 0.0092	0.577 ± 0.015
AWDIKQTLDSLA [CHO2 C-terminal 12 aa]	0.709 ± 0.023	0.697 ± 0.038
SFDVELVGLKFV [YHL019W-A C-terminal 12 aa]	0.7172 ± 0.005	0.695 ± 0.029
KPDVERVYKENT [FAA4 C-terminal 12 aa]	0.701 ± 0.025	0.665 ± 0.011
NQTSFSRDRLRR [RRD1 C-terminal 12 aa]	0.702 ± 0.013	0.722 ± 0.066
SRIIIKAARGII [YOR082C C-terminal 12 aa]	0.704 ± 0.042	0.678 ± 0.019
SEETKKSCCSGK [CUP1-1 C-terminal 12 aa]	0.695 ± 0.01	0.757 ± 0.048
VILYRSVMKLSP [YOR073W-A C-terminal 12 aa]	0.646 ± 0.011	0.66 ± 0.017
LKQLDNLKSQLN [ARG4 C-terminal 12 aa]	0.7 ± 0.013	0.6755 ± 0.0019

Sequence	protein stability index [1]	protein stability index (genetic background: wild type)
FSNAGVEMQIRK [GNA1 C-terminal 12 aa]	0.702 ± 0.0064	0.736 ± 0.04
KLMVEEINLDID [FZO1 C-terminal 12 aa]	0.7048 ± 0.0045	0.747 ± 0.092
MLGVGSLLFLAF [ROT1 C-terminal 12 aa]	0.698 ± 0.03	0.691 ± 0.026
CLILSCSWWILN [YJR020W C-terminal 12 aa]	0.292 ± 0.0085	0.1518 ± 0.00025
TLKKIFSKRSIS [YCL049C C-terminal 12 aa]	0.722 ± 0.02	0.4651 ± 0.0019
ARTALKRLIDDQ [MSA1 C-terminal 12 aa]	0.692 ± 0.023	0.698 ± 0.025
PPPQESTEKEEK [MRP13 C-terminal 12 aa]	0.709 ± 0.031	0.668 ± 0.0098
KARPFKCSDKKQ [MZM1 C-terminal 12 aa]	0.718 ± 0.016	0.72792 ± 0.00048
QIADDRPWCRME [YHC3 C-terminal 12 aa]	0.705 ± 0.01	0.6831 ± 0.0064
ERDNWWVVAQKR [TRM9 C-terminal 12 aa]	0.744 ± 0.023	0.723 ± 0.012
ELLYIIDHLSEL [BTS1 C-terminal 12 aa]	0.693 ± 0.023	0.67 ± 0.015
VDDYVAAGFQTL [SUT2 C-terminal 12 aa]	0.7372 ± 0.0021	0.714 ± 0.018
VTVYGGRSRMSA [YJL152W C-terminal 12 aa]	0.6989 ± 0.0061	0.702 ± 0.02
VSMKAIFSCMYV [YMR272W-B C-terminal 12 aa]	0.6576 ± 0.0051	0.655 ± 0.034
NVGYMHTQPQQR [TCO89 C-terminal 12 aa]	0.71 ± 0.0077	0.67 ± 0.016
SPTRKRPPPRLS [INN1 C-terminal 12 aa]	0.726 ± 0.0049	0.722 ± 0.0076
LEEPYKPQRQRC [YPL088W C-terminal 12 aa]	0.6798 ± 0.0049	0.718 ± 0.0087
LNKEALKHNMLK [HSH49 C-terminal 12 aa]	0.691 ± 0.048	0.695 ± 0.092
HTMENIFAGKLD [CUE4 C-terminal 12 aa]	0.7177 ± 0.0019	0.69 ± 0.011
YCLAGVLCVFCV [YPR064W C-terminal 12 aa]	0.431 ± 0.013	0.433 ± 0.0085
